Measured values taken from paper PMC7875332.

Molecular target: ACE2 receptor on Vero E6 cells (African green monkey (endogenous in Vero E6))
Experiment: flow cytometry on cells; HIS-tagged S protein incubated with 1.5 × 10^5 Vero E6 cells (ACE2+), 37°C for 1 hour, in 1% BSA in PBS with 0.02% sodium azide; detected with FITC-labeled anti-HIS Ab

Substance “recombinant SARS-CoV-2 S protein, fused with a HIS tag at the C terminus (from UniProt P0DTC2) (natural protein)” has a concentration at binding saturation of 200 nM.
